Here are results for two molecules from patent US20170247437A1 (ONCOMED PHARMACEUTICALS, published 2017).

The target of assay [1] is FLAG-RSPO1furin-CD4TM-GFP (human) (UniProt Q2MKA7). Put plainly: FACS on HEK-293 cells transiently expressing FLAG-RSPO1furin-CD4TM-GFP; secondary APC-conjugated anti-IgG alone, no primary antibody.
Assay [2] addresses T1, recombinant human RSPO1 (R&D Systems) (human, UniProt Q2MKA7 21-263).
T1 construct: Bought protein
The assay is described as follows: ELISA on plate-coated recombinant human RSPO1, anti-human IgG Fc-HRP detection, 4-parameter fit, 3 runs. On the procedure:
High binding 96 well plates (Nalge Nunc International) were coated with […] recombinant human RSPO1 (R&D Systems) in coating buffer (1× PBS, pH 7.4) overnight at 2-8° C. The plates were washed 3-6 times after each step with 300 μl/well of 1× PBS, 0.05% Tween-20, pH 7.4. After coating, the plates were incubated with 250 μl/well of blocking buffer (1× PBS, 0.1% gelatin, 0.1% TWEEN-20, pH 7.4) for 60 minutes ±10 minutes at room temperature (19-25° C.). Plates were washed and incubated with 100 μl/well of first generation humanized anti-RSPO1 antibody h89M5-H2L2 and second generation humanized antibody h89M5-H8L5 for 120 minutes ±10 minutes at room temperature. First generation humanized anti-RSPO1 antibody h89M5-H2L2 was use as the reference standard and the positive control. The antibodies were prepared at an initial concentration of 2.5 μg/ml and diluted 3-fold serially, ranging from 2.5 μg/ml to […]. Each sample was tested in duplicate and the experiment was run 3 times. […] The binding of the antibodies to RSPO1 was measured by absorbance at 450 nm and 650 nm using an ELISA plate reader (Molecular Devices). The results were analyzed using a 4-parameter curve fit, and relative binding potency was determined by comparing EC₅₀ values of the reference to that of the samples.
Background: ELISA stands for enzyme-linked immunosorbent assay.

FLAG-RSPO1furin-CD4TM-GFP (human), sequence (Q2MKA7 34-135): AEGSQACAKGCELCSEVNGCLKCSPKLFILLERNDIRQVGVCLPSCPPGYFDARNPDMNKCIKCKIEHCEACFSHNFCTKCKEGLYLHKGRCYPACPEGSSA
T1 sequence (Q2MKA7 21-263 limits assumed): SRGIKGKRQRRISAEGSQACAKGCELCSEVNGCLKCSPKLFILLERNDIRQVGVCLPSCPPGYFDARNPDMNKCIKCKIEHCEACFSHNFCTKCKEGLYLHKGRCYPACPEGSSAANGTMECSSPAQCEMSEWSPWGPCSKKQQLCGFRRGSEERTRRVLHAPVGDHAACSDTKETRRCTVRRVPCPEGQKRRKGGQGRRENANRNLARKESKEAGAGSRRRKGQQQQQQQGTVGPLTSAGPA

Secondary Ab Control (antibody) had an MFI in assay [1] of 3.2.

B1: second generation humanized anti-RSPO1 antibody h89M5-H8L5 (antibody, human IgG1, kappa, V domains shown)
VH: EVQLVQSGAEVKKPGESLRISCKGSGYSFTGYTMHWVRQMPGKGLEWMGGINPNNGGTTYNQNFKGHVTISADKSISTAYLQWSSLKASDTAMYYCARKEFSDGYYFFAYWGQGTLVTVSS
VL: DIVMTQSPDSLAVSLGERATINCKASQDVIFAVAWYQQKPGQPPKLLIYWASTRHTGVPDRFSGSGSGTDFTLTISSLQAEDVAVYYCQQHYSTPWTFGGGTKVEIKR
notes: Humanized version of mouse antibody 89M5, with the same CDRs as h89M5-H2L2; also called h89R5-H8L5
As to B1, the “mean relative binding potency (EC50 against reference h89M5-H2L2)” value in assay [2] stood at 120%.
